B1: DNASE: enzyme hydrolysing phosphodiester bonds of dsDNA; marketed under the brand name Pulmozyme for cystic fibrosis sputa (protein, UniProt P24855 23-282, looked up)
Deoxyribonuclease-1: LKIAAFNIQTFGETKMSNATLVSYIVQILSRYDIALVQEVRDSHLTAVGKLLDNLNQDAPDTYHYVVSEPLGRNSYKERYLFVYRPDQVSAVDSYYYDDGCEPCGNDTFNREPAIVRFFSRFTEVREFAIVPLHAAPGDAVAEIDALYDVYLDVQEKWGLEDVMLMGDFNAGCSYVRPSQWSSIRLWTSPTFQWLIPDSADTTATPTHCAYDRIVVAGMLLRGAVVPDSALPFNFQAAYGLSDQLAQAISDHYPVEVMLK

Columns and labels:
[1] = system: New Zealand white rabbits; experiment: Pilot study: safety of inhaled bromelain in rabbits; settings: rabbit, in vivo
Text: In this pilot study. […] Ten minutes waiting period was kept between Salbutamol administration and treatment. Each rabbit received one cumulative dose of bromelain using a nebulizer and a v-gel supraglottal airway device as below. The pilot study was divided into 2 experiments as follows:
Experiment 1: Two rabbits were used in the first bromelain aerosol administration experiment. The first rabbit received an aerosol of physiological saline solution (0.9% NaCl), the second rabbit received aerosolized bromelain 0.1 mg/mL (accumulative dose of 0.19 mg in 1.9 mL saline), over 16 min inhalation period (Table 1).
Experiment 2: Three rabbits were used in the second bromelain aerosol administration experiment. The first rabbit received an aerosol of physiological saline solution (0.9% NaCl), the second one received aerosolized low dose of bromelain 0.01 mg/mL (accumulative dose of 0.025 mg bromelain in 2.5 mL saline), the third rabbit received aerosolized high dose of bromelain 0.1 mg/mL (accumulative dose of 0.25 mg bromelain in 2.5 mL saline), over 11 min inhalation period.
Rabbits were euthanized 48 h post-treatment using IV Sodium pentobarbitone 100 mg/kg while animals were sedated using isoflurane.

[2] = Sputum flow speed after mixing with BromAc, DNase and combinations; settings: BR 250 ug/ml, NAC 20 mg/ml where present, 1 hour, 37 deg C
Protocol: (§1) Artificial sputa was prepared following methodology with ingredients as in earlier experiments. To 1.5 ml of artificial sputa in a vial was added 0.5 ml of reagent containing the required bromelain, NAC, DNase and their combinations. Control vials included 0.5 ml of PBS only. The mixture was vortex mixed and incubated in a shaker water bath at 37 deg C. At the end of 1 hour, the samples were retrieved, vortex mixed and equilibrated to ambient room temperature before measuring dynamic viscosity and pipette flow.
(§2) Dynamic viscosity was determined using the capillary tube method as in earlier experiments, whilst the pipette flow was evaluated using a 0.5 ml pipette inclined at 60 deg angle. The pipette flow was calculated as shown below.
Pipette flow (€)=0.45 ml sputa/time to empty (sec).

[3] = Dynamic viscosity after mixing with BromAc, DNase and combinations; settings: for Dynamic viscosity (¥): heads: BR(25 ug/ml), NAC(20 mg/ml), BR(250 ug/ml) + NAC(20 ug/ml)
Protocol: as §1, §2

Row | Molecule | activities, food and drink intake, breathing [1] | Sputum flow speed (€) ([2]; plus DNASE 2.0 ug/ml) | Sputum flow speed (€) ([2]; plus DNASE 4.0 ug/ml) | Sputum flow speed (€) ([2]; plus DNASE 6.0 ug/ml) | Sputum flow speed (€) ([2]; plus DNASE 8.0 ug/ml) | Sputum flow speed (€) ([2]; plus DNASE 20 ug/ml) | Sputum flow speed (€) ([2]; plus DNASE 10. ug/ml) | effect on dynamic viscosity compared with other treatment groups ([3]; DNase 2-20 μg/ml) | Dynamic viscosity (¥) ([3]; plus DNASE 2.0 ug/ml) | Dynamic viscosity (¥) ([3]; plus DNASE 4.0 ug/ml) | Dynamic viscosity (¥) ([3]; plus DNASE 6.0 ug/ml) | Dynamic viscosity (¥) ([3]; plus DNASE 8.0 ug/ml) | Dynamic viscosity (¥) ([3]; plus DNASE 20 ug/ml) | Dynamic viscosity (¥) ([3]; plus DNASE 10. ug/ml)
1 | Bromelain | normal |  |  |  |  |  |  |  |  |  |  |  |  | 
2 | B1 |  | 0.0627 mL/s | 0.075 mL/s | 0.082 mL/s | 0.09 mL/s | 0.1125 mL/s | 0.1044 mL/s | less compared to all the other treatment groups | 1.64 cSt | 1.60 cSt | 1.57 cSt | 1.514 cSt | 1.379 cSt | 1.472 cSt

Reference: US20250009856A1, “METHODS FOR TREATING RESPIRATORY DISEASES” (MUCPharm Pty Ltd, priority 2021, published 2025)
